Test results from patent US7517959B2, “SOCS3 proteins” (Walter and Eliza Hall Institute of Medical Research, priority 2005, dated 2009).
Entries after “also recorded” stand apart in the source; their conditions may differ.

How the values were obtained:
[1] = depending on the cell type; cited from earlier work
293T cells = assay: Pulse chase half-life experiments in 293T cells; format: cell-based; details: for effect of proteasome inhibitor MG132 on half-life: 10 μM MG-132, over eight hours; for labelled protein remaining: after 8 hr; for intracellular stability / turnover: pulse chase, result in words
From the text: FIG. 9. Removing the PEST motif improves the intracellular half-life of SOCS3 and affects its degradation mechanism. • (A) Duplicate pulse chase experiments in 293T cells performed after transfection of (upper panel) wild-type (1-225) or ΔPEST (Δ129-163) SOCS3 DNA and (lower panel) ΔNC-SOCS3 (22-185) or ΔNC-Δ129-163 (22-185 ΔPEST) SOCS3 DNA. The amount of labelled protein remaining is shown as a perceintage of initial levels and plotted as a semi-log graph. […] Duplicate experiments are shown in each panel • (B) Removing the PEST motif alters the intracellular degradation pathway of SOCS3. Pulse chase experiments were performed on 293T cells transfected with wild-type SOCS3 (black) or ΔPEST SOCS3 (grey) and incubated in the presence (hashed bars) and absence (solid bars) of MG-132, a proteasome inhibitor. Experiments were performed in duplicate according to the protocol in (A) but with the addition of 10 μM MG-132 and the protein levels monitored over eight hours.
293T cells (5×10^5 cells/well) were transfected with 1.5 μg of the appropriate SOCS3 expression construct as described above. 48 h after transfection cells were washed twice in PBS and incubated for 1 h in Met/Cys-free DME (Gibco-BRL). Cells were then incubated for 30 min in DME containing 0.15 mCi/ml [^35S]Met/Cys (Perkin-Elmer) followed by DME+10% Foetal calf serum (Sigma)+2 mM Cys+2 mM Met for various times, upon which cells were lysed in KALB lysis buffer (1 mM EDTA, 150 mM NaCl, 50 mM Tris-Cl, 1% Triton X-100, pH 7.5) and the amount of [^35S]-labelled SOCS3 was determined by immunoprecipitation using anti-Flag tag M2 beads (Sigma). Detection and quantification was carried out using a FujiFilm FLA-3000 phosphoimager and associated software.
Intracellular levels of SOCS3 are strongly regulated by proteolysis. Two regions of the protein have been implicated previously in regulating proteolysis, Lys6 in the N-terminal domain and the C-terminal SOCS box (Chen et al., 2002; Kamura et al., 1998; Sasaki et al., 2003). As PEST motifs are known to be signals for protein degradation in vivo (Rogers et al., 1986), we measured the half-life of SOCS3 proteins that lacked the PEST motif, as well as constructs lacking the SOCS box and the N-terminal region. […] As the SOCS box and the N-terminal domains also affect SOCS3 turnover we further examined the effect of deleting these regions. The decrease in SOCS3 degradation upon removing the PEST motif from either the full-length protein (upper panel) or from SOCS322-185 (which lacks both the N-terminal domain and SOCS box, lower panel) was significant.
As PEST motifs have been associated with proteasome-mediated degradation, we investigated whether proteasome inhibitors would have an effect on the half-life of SOCS3 in 293T cells. […] After 8 hr in the presence of MG132 approximately 65% of ΔPEST SOCS3 remained, compared with ca. 45% in its absence. […] Thus it appears that, in 293T cells, the proteasomal pathway is an important route for ΔPEST SOCS3 degradation but that wild-type SOCS3, which contains the PEST motif, is efficiently degraded via another mechanism.

[2] = Protocol: (§1) Pelleted bacterial cells were resuspended in PBS and then lysed by homogenisation. The lysate was centrifuged at 20,000 g and the pelleted inclusion bodies solubilised using 6M GdnHCl. The protein was then purified using Ni-NTA resin (Qiagen) by binding at pH 8.0, washing at pH 6.3 and eluting at pH 4.5, all in 6M GdnHCl. The eluted protein was diluted to 0.1 mg/mL and a final GdnHCl concentration of 4 M and then refolded by extensive dialysis against 25 mM sodium phosphate, 50 mM sodium chloride, 5 mM 2-mercaptoethanol at pH 6.7.
All constructs contained the SH2 domain, as defined by sequence homology (Okazaki et al., 2002), but included differing lengths of sequence outside this region.
The six mutants (A50D, G53R, L58E, A62E, A65E, G99D) were all cloned and expressed in E. coli as part of a 22-185 construct.

SOCS3 = SOCS3 (Mus musculus, UniProt O35718); details: result in words; cited from earlier work
SOCS3, sequence (O35718 whole entry): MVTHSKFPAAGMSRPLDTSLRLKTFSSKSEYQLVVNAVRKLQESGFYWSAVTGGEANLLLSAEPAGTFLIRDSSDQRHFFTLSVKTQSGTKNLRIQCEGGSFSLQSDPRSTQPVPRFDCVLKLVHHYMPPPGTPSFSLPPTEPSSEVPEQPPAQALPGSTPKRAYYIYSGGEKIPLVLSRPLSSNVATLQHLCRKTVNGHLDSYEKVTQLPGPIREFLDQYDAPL

[3] = target: tyrosine phosphorylated peptide from gp130 (Mus musculus, UniProt Q00560, Q756E); assay: Binding studies and isothermal titration calorimetry (ITC) with gp130 peptide; details: for ΔH: FIG. 4 titration, fit to single site binding isotherm
Protocol: as §1

[4] = test system: LIF-induced Stat3 activity; assay: Stat3-responsive luciferase assay in 293T cells; format: cell-based; details: 100 or 300 ng cDNA, 10 ng/ml LIF overnight
From the text: FIG. 8. […] Backbone amide chemical shift differences between residues in wild-type SOCS3 and ΔPEST SOCS3, which has residues 129-163 replaced by […] (SEQ ID NO:10), are plotted against residue number; amide proton and nitrogen chemical shift differences were averaged according to Δδav, a weighted average of the ^15N and ^1HN chemical shifts as follows: Δδav={0.5[Δδ(^1HN)^2+(0.2Δδ(15N))^2]}^1/2 (Pellecchia et al., 1999). The position of the PEST sequence is marked by a double asterisk. • (B) SOCS3 PEST deletion mutants are able to inhibit STAT activation. 293T cells were transiently transfected with 100 or 300 ng cDNA expressing various Flag-tagged SOCS-3 proteins in the presence of the Stat3-responsive reporter gene. […] Upper panel: Luciferase activity from triplicate samples was determined and normalized against Renilla luciferase activity. Lower panel: Lysates were analysed by Western blot with anti-Flag antibody. […]
Firefly and Renilla luciferase activities were quantified using substrate reagents from the Luciferase Assay Dual-Reporter kit (Promega, Madison Wis.) and an automated LUMIstar Galaxy plate reader (BMG Technologies, Offenburg, Germany). SOCS3 protein expression was analysed by Western blot with polyclonal rat anti-Flag antibody (Drs. D. Huang & L. O'Reilly, The Walter and Eliza Hall Institute of Medical Research, Melbourne, Australia) as described (Nicholson et al., 1999). […]

wild-type SOCS3: Wild-type (1-225) murine SOCS3, Flag-tagged in the cell assays; SEQ ID NO:1
half-life [1]: under 5 minutes to over 8 hours
effect of proteasome inhibitor MG132 on half-life (293T cells): did not affect the half-life; also recorded: no effect on the half-life
labelled protein remaining (293T cells; MG132 state not specified (no effect on wild-type)): 25%
solubility (in words) [2]: too low for structure determination

STASTVEpYSTVVHSG [phosphotyrosine peptide from gp130]
binding to mouse SOCS3 (SOCS3): bind with high affinity

B1: SOCS3(22-185): Mouse SOCS3 residues 22-185 with KIR and extended SH2 domain, lacking the C-terminal SOCS box (protein)
chain: LKTFSSKSEYQLVVNAVRKLQESGFYWSAVTGGEANLLLSAEPAGTFLIRDSSDQRHFFTLSVKTQSGTKNLRIQCEGGSFSLQSDPRSTQPVPRFDCVLKLVHHYMPPPGTPSFSLPPTEPSSEVPEQPPAQALPGSTPKRAYYIYSGGEKIPLVLSRPLSSN
ΔH [3]: -6.2 kcal/mol
solubility (in words) [2]: highest solubility
soluble to [2]: ≈ 0.5 mM

B2: SOCS3(22-225): Mouse SOCS3 residues 22-225 containing KIR, extended SH2 domain and SOCS box (protein)
chain: LKTFSSKSEYQLVVNAVRKLQESGFYWSAVTGGEANLLLSAEPAGTFLIRDSSDQRHFFTLSVKTQSGTKNLRIQCEGGSFSLQSDPRSTQPVPRFDCVLKLVHHYMPPPGTPSFSLPPTEPSSEVPEQPPAQALPGSTPKRAYYIYSGGEKIPLVLSRPLSSNVATLQHLCRKTVNGHLDSYEKVTQLPGPIREFLDQYDAPL
solubility (in words) [2]: too poorly soluble
solubility in NaCl/Pi [2]: < 1000 µg/mL

B3: SOCS3(22-185)(Δ129-163): 22-185 construct with Pro129-Arg163 replaced by an eight residue (Gly-Ser)x4 linker; SEQ ID NO:3 (protein, listed as Mus musculus)
chain: LKTFSSKSEYQLVVNAVRKLQESGFYWSAVTGGEANLLLSAEPAGTFLIRDSSDQRHFFTLSVKTQSGTKNLRIQCEGGSFSLQSDPRSTQPVPRFDCVLKLVHHYMGSGSGSGSAYYIYSGGEKIPLVLSRPLSSN
ΔH [3]: -6.4 kcal/mol
binding to the gp130 peptide ([3]; result in words): binds to the gp130 peptide
intracellular stability / turnover (293T cells): improved its in vivo stability

B4: ΔPEST SOCS3: Full-length SOCS3 lacking the PEST sequence (Δ129-163), Flag-tagged (protein)
chain: LKTFSSKSEYQLVVNAVRKLQESGFYWSAVTGGEANLLLSAEPAGTFLIRDSSDQRHFFTLSVKTQSGTKNLRIQCEGGSFSLQSDPRSTQPVPRFDCVLKLVHHYMGSGSGSGSAYYIYSGGEKIPLVLSRPLSSN
ability to inhibit LIF-induced Stat3 activity [4]: did not alter the ability of SOCS3 to inhibit LIF-induced Stat3 activity
effect of proteasome inhibitor MG132 on half-life (293T cells): dramatically increased the half-life; also recorded: significantly increased the half-life
labelled protein remaining (293T cells; in the absence of MG132): ca. 45%
labelled protein remaining (293T cells; in the presence of MG132 (10 μM)): approximately 65%
intracellular stability / turnover (293T cells): improved its in vivo stability
